# Values of other authors in patent US20090291133A1, “METHODS AND COMPOSTIONS FOR ENHANCING TRANSDERMAL DRUG DELIVERY” (NATIONAL HEALTH RESEARCH INSTITUTES, priority 2008, published 2009).
# Where two headings read alike, the source gives them in different places.
# B1: papain (protein, UniProt P00784 134-345, looked up)
# Papain: IPEYVDWRQKGAVTPVKNQGSCGSCWAFSAVVTIEGIIKIRTGNLNEYSEQELLDCDRRSYGCNGGYPWSALQLVAQYGIHYRNTYPYEGVQRYCRSREKGPYAAKTDGVRQVQPYNEGALLYSIANQPVSVVLEAAGKDFQLYRGGIFVGPCGNKVDHAVAAVGYGPNYILIKNSWGTGWGENGYIRIKRGTGNSYGVCGLYTSSFYPVKN
# notes: proteolytic enzyme used as permeability enhancer
# Conditions: reported in US005534260A
molecule,measurement,setting,value
B1,safe concentration of papain,equivalent in solution,4 µM
same,safe concentration of papain,,around 0.093 mg/ml
